# Source: paper PMC314469, “Protein Interaction Networks by Proteome Peptide Scanning” (PLoS Biology, 2004)
# T1: Abp1 SH3 (ABP1_YEAST), P15891
# T1 chain: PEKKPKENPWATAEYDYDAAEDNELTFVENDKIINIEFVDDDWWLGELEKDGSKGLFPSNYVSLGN
# Biological target: T1, Abp1 SH3 (ABP1_YEAST), P15891
# Experiment: SPOT array
row,"normalised SPOT signal, Boehringer light units (BLU); mean over the file's lines of this peptide",Binder
1,80,GISHTRMPTESRP [YKL165C 94-106]
2,98.3,HKSNVRQISNPKKP [YGL023C 320-333]
3,703,HSYRQLAPTHHRP [YFL015C 82-94]
4,866,GRLTPGLPRSYKP [YPR111W 45-57]
5,2310,GVRNIMIPFPNRP [YOR093C 1314-1326]
6,137,HEESNNYVEIPKKP [YHR092C 51-64]
7,2720,GRAPRETPEWRRP [YGL034C 16-28]
8,139,GYDVKVTPWEKRP [Q0055 610-622]
9,257,HHHHHNRGSTPTKP [YDL025C 257-270]
10,112,GVNLDPSVKIPAKP [YIR007W 25-38]
11,499,GNGMYKIPSNTKP [YPL116W 648-660]
12,41.6,GKLVDLTPASMKP [YGR196C 563-575]
13,87.2,GSVWSKTPPEIKP [YOL100W 451-463]
14,55.3,HHNIDIDPLPRRP [YLR299W 81-93]
15,210,GINMKKGFINPRKP [YLL021W 560-573]
16,65.2,GKSRRKTNTKPSRP [YPL137C 17-30]
17,131,GVVLRVMVLKPKKP [YNR036C 60-73]
18,154,HGLPRNADSQPARP [YIR013C 32-45]
19,8770,GPAPPPPPRASRP [YOR181W 384-396]
20,204,GKLLKSYPTSARP [YGR238C 700-712]

row,"normalised SPOT signal, Boehringer light units (BLU); mean over the file's lines of this peptide",Binder
1,224,GKNKMHEPKNGRP [YOR006C 4-16]
2,106,GTKKIAGVQVPAKP [YPL107W 67-80]
3,131,GLKYAQSPKFSKP [YKL212W 605-617]
4,107,HADSVADPRSSRP [YOL085C 38-50]
5,318,GNIVEIAPLIPKKP [YDR080W 593-606]
6,107,GSSELEEPIAIRP [YHR020W 279-291]
7,176,GVFMNWSPRFDRP [YLR023C 375-387]
8,134,GTSASHSPRPFRP [YLL029W 25-37]
9,135,GLNDSTEPVLHKP [YIL044C 131-143]
10,108,GKSIYFSDIVPSKP [YJL186W 204-217]
11,102,GWYLTGAPNILKP [YDL203C 543-555]
12,69.7,HLFPPSSPVAGKP [YDR501W 3-15]
13,140,GKDIPFFPSSEKP [YDR443C 544-556]
14,41900,GKDKSRPPRPPPKP [YIL095W 743-756]
15,86.6,GPQKEEAPKKHRP [YMR076C 1094-1106]
16,172,GYRKAALKYHPDKP [YNL007C 25-38]
17,60.8,GQFSPENPNEFKP [YPR160W 817-829]
18,156,HKVKERDPNMPKRP [YDL002C 84-97]
19,292,GNPLYTTPKTPPRP [YKR028W 953-966]
20,108,GSTAVSFPSSGKP [YLR313C 322-334]

row,"normalised SPOT signal, Boehringer light units (BLU); mean over the file's lines of this peptide",Binder
1,124,GLQGDQFPRQQRP [YDR240C 296-308]
2,25200,GSKSGPPPRPKKP [YNL138W 349-361]
3,285,HITSHLRVHVPLKP [YHL027W 198-211]
4,48.5,GVADPQNSLNPSKP [YOR363C 848-861]
5,83.5,GTFESKHVVIPFKP [YLR238W 83-96]
6,85.4,HKNFFSQPDINRP [YMR100W 263-275]
7,124,HGTLTFPSDYPYKP [YER100W 55-68]
8,73.6,GKIELTSPITSKP [YEL019C 178-190]
9,58.6,GTKSQESPLNKKP [YNL042W 210-222]
10,123,HDKDVIVPNVWRP [YEL036C 221-233]
11,127,GQLANSSSRAPAKP [YDL222C 69-82]
12,169,GMTKTPETSPPKRP [YDR200C 28-41]
13,122,HIGDMYGSVTPLRP [YHL002W 323-336]
14,122,GVNYVDYYPLPDKP [YGL137W 186-199]
15,55.9,GSSPQPLPELIKP [YGR270W 682-694]
16,91.3,HASLLVRDSKPSKP [YBR193C 182-195]
17,131,HLIAPLAGAVPTKP [YLR153C 435-448]
18,174,GYFFHDPKFIPNKP [YGR019W 332-345]
